Reference: publication PMC3887004

Target: F-actin (actin from rabbit skeletal muscle) (rabbit) (UniProt P68135)

run length λ of Qdot-labelled myosin moving along immobilised actin filaments (stepping assay): 2.9 µm
Substance: Myo IX headΔext (motor domain lacking the N-terminal extension) (domain or fragment)
